Publication PMC3595365 (Molecular cell, 2013)

Legend:
[1] = molecular target: His6-ubiquitin (UniProt P0CG48 1-76); assay: BLI
[2] = molecular target: His6-NEDD8 (UniProt Q15843 1-76); assay: BLI
Chain of His6-NEDD8 (Q15843 1-76): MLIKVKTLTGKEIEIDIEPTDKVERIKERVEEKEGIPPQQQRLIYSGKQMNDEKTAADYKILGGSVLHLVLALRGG

B1: GST-RNF168-MIU2 (439-462) (domain or fragment, UniProt Q8IYW5 439-462, looked up)
chain: RHKQEEQDRLLALQLQKEVDKEQM
**Q.** For B1, which Kd [1] is on record?
**A.** Its Kd is 17 ± 3 µM.

**Q.** What about the Kd [2] of the same binder?
**A.** The Kd was 14 ± 3 µM.
